# According to publication PMC11734896, “Engineering dimer mutants of human geranylgeranyl pyrophosphate synthase” (PLOS ONE, 2025):
# Numbering of substitutions follows the chain as printed. Numbers in names are those of the source.
# B1: wild-type human geranylgeranyl pyrophosphate synthase (enzyme)
# chain: MEKTQETVQRILLEPYKYLLQLPGKQVRTKLSQAFNHWLKVPEDKLQIIIEVTEMLHNASLLIDDIEDNSKLRRGFPVAHSIYGIPSVINSANYVYFLGLEKVLTLDHPDAVKLFTRQLLELHQGQGLDIYWRDNYTCPTEEEYKAMVLQKTGGLFGLAVGLMQLFSDYKEDLKPLLNTLGLFFQIRDDYANLHSKEYSENKSFCEDLTEGKFSFPTIHAIWSRPESTQVQNILRQRTENIDIKKYCVHYLEDVGSFEYTRNTLKELEAKAYKQIDARGGNPELVALVKHLSKMFKEENE
# notes: geranylgeranyl pyrophosphate synthase (GGPPS), human; theoretical subunit mass printed as 37,424 Da; The printed subunit mass of 37,424 Da is larger than that of the untagged natural protein as I recall it, so a tag was probably kept; also called GGPPS; WT GGPPS
# B2: human GGPPS Y246D/C247L mutant (enzyme)
# chain: B1 chain with Y246D, C247L
# notes: also called DL; DL mutant
# B3: human GGPPS Y246K/C247L mutant (enzyme)
# chain: B1 chain with Y246K, C247L
# notes: also called KL; KL mutant
# B4: human GGPPS Y246D/C205A mutant (enzyme)
# chain: B1 chain with C205A, Y246D
# notes: also called DA; DA mutant
# How the values were obtained:
# [1] = molecular target: T1, geranylgeranyl pyrophosphate synthase (GGPPS) (Homo sapiens, UniProt O95749, Y246D/C247L)
# T1 construct: gene GGPS1
# T1 sequence (O95749 whole entry Y246D/C247L): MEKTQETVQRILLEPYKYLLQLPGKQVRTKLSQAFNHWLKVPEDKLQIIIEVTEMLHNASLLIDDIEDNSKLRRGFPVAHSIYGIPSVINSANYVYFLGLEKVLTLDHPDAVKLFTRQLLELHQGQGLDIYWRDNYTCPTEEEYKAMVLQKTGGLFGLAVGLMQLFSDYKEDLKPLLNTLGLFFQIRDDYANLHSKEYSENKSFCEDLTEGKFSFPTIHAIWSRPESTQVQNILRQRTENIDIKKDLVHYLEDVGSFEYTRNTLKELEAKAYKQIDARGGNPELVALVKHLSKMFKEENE
# [2] = molecular target: the molecule itself; assay: SEC; HiLoad 16/600 Superdex 200 step of the purification; 10 mM HEPES pH 7.5, 500 mM NaCl, 2 mM β-mercaptoethanol, 5% glycerol; mass estimated from a standard curve; self-association
# [3] = molecular target: the molecule itself; assay: differential scanning fluorimetry (Tm) + native gel or EMSA; oligomeric state inferred from Tm without inhibitor (10 mM HEPES pH 7.5, 100 mM NaCl, 3 mM MgCl2, 0.5 mM TCEP, 5 μM protein), supported by native-PAGE (S2 Fig); self-association
Molecule,stoichiometry N [2],stoichiometry N [3],also measured
"C=C(C)CCO[P@@](=O)(O)OP(=O)(O)O [IPP, isopentenyl pyrophosphate]",,,"X-ray crystal structure, 2.1 Å [1]: clearly indicated the presence of IPP within its anticipated binding site in one subunit of the dimer mutant"
B1,6,,
B2,2,,
B3,,2,
B4,,2,
